Test results as given in US20240270826A1 (NATIONAL RESEARCH COUNCIL OF CANADA, published 2024).

B1: NRCoV2-21 VHH-Fc (Fc fusion)
chain: EVQLVESGGGLVQPGGSLRLSCATSGFTLDYYAIGWFRQAPGKEREWVSCISSGGSTFYVDSVKGRFTISRDNAKDTVYLQMSSLKPDDTAVYYCAADHRGRSLRFGCSSSTTDYLYWGQGTQVTVSS
notes: bivalent VHH-Fc
B2: NRCoV2-S2F3 VHH-Fc (Fc fusion)
chain: EVQLVQSGGGLVQAGGSLRLSCATSVRILSVPAMGWYRQAPGKEREMVAVITSGGSTNYADSVKGRFTISRDNAKNTVYLQMNSLKLEDTAVYQCNLRDILSQPFWGQGTQVTVSS
notes: bivalent VHH-Fc
B3: NRCoV2-MRed22 VHH-Fc (Fc fusion)
chain: EVQLVESGGGLVQPGGSLRLSCAASGSVFASNAMGWYRQAPGKQRELVATISSRGSTNYADSVKGRFTISRDNAKNTVYLQMNSLGPEDTAVYYCNAREFTGFDYWGQGTQVTVSS
notes: bivalent VHH-Fc
B4: NRCoV2-S2G3 VHH-Fc (Fc fusion)
chain: QVQLVQSGGGSVQAGGSLRLSCAASGSTFGIFLMGWRRQAPGKQRELVAHITSGGATNYADSVKGRFTISRDNAKNTVYLQMNSLEPEDTAVYYCYTTKRDDASVYWGQGTQVTVSS
notes: bivalent VHH-Fc
B5: NRCoV2-S2A4 VHH-Fc (Fc fusion)
chain: QVQLVQSGGGLVQAGGSLRLSCAVSGSPFRSNVMEWYRQAPGKQRELVASISTGGSRTYTDSVKGRFTISRDNAKNEAFLQMNSLKPEDTAVYYCHAAARDSHGIYLLDTWGQGTQVTVSS
notes: bivalent VHH-Fc
B6: NRCoV2-S2G4 VHH-Fc (Fc fusion)
chain: QVQLVQSGGGLVQAGGSLTLSCAPSGSTFSGYATNWYRQAPGKQRELVATISSDGDKNYADSVKGRFTISRDNAKNTVYLQMNSLKPEDTAVYYCNKHWWTGDWWGQGTQVTVSS
notes: bivalent VHH-Fc
B7: NRCoV2-MRed19 VHH-Fc (Fc fusion)
chain: EVQLVESGGGLVQPGGSLRLSCAASTIIFKGQTMGWFRQAPGNERELVATMTTSGSANYADSVKGRFTISRDNEKTVTLQMNSLKPEDTALYYCYMHSVYYGIDYWGKGTQVTVSS
notes: bivalent VHH-Fc
B8: NRCoV2-MRed18 VHH-Fc (Fc fusion)
chain: EVQLVESGGGLVQPGGSLRLSCAASTTVFGRNAMGWYRQAPGKERELVATVSDGGTPNYADSVKGRFTISRDNAKNTIYLQMNSLEPEDTAVYYCNYYNYYYGRNFWGQGTQVTVSS
notes: bivalent VHH-Fc
B9: NRCoV2-MRed20 VHH-Fc (Fc fusion)
chain: EVQLVESGGGSVQAGGSLRLSCAASGLSFSSYDMGWFRQAPGKEREFVAAIRESGSGTYYADSVKGRFTISRDNAKNTVYLQVSSLKPEDTAVYTCAAKPPFYGSGTYSTPRAYLYWGQGTQVTVSS
notes: bivalent VHH-Fc
B10: NRCoV2-10 VHH-Fc (Fc fusion)
chain: QLQLQESGGGLVQPGGSLTLSCAASGNTFSRSNMHWYRQAPGAQREWVAAISSRGISTYAYSAKGRFTISRDNAKNTVSLQMNSLKPEDTAVYYCYAADDLGDYWGQGTQVTVSS
notes: bivalent VHH-Fc
B11: NRCoV2-03 VHH-Fc (Fc fusion)
chain: EVQLVSSGGGLVQAGGSLRLSCTASGITFSYYAMGWYRQAPGQPRELVASMSNMDSTIYADSVKGRFTISRDNAKTTIYLQMNNLKPEDTAVYFCNIYGPTYSTRRNEYWGQGTQVTVSS
notes: bivalent VHH-Fc
B12: NRCoV2-14 VHH-Fc (Fc fusion)
chain: EVQLVSSGGGLVQAGGSLRLSCEASGTTFSHYAVGWYRQAPGKQREWVASISVFGSTTYGGSVAGRFTISRDNDKNTVDLQMNSLKPEDTAVYYCHAVNADIGGDYWGQGTQVTVSS
notes: bivalent VHH-Fc
B13: NRCoV2-06 VHH-Fc (Fc fusion)
chain: EVQLVQSGGGLVQAGESLRLSCAASVSTFSSYAMGWYRQAPGKQRELVASIGFVGATYYIDSVKGRFTISRDNAKKTAYLQMNDLKPDDTAVYYCNARHYGGSEYWGQGTQVTVSS
notes: bivalent VHH-Fc
B14: NRCoV2-SR16 VHH-Fc (Fc fusion)
chain: QVQLVQSAGGLVQAGGSLRLSCVVSGTTFSRYHMGWHRQAPGKQRDFVAGISTSGAVTYADSAKGRFTISRDNAKNTVYLEMNSLKLEDTALYYCNTGGWDYRSSTFIMGLNWGQGTQVTVSS
notes: bivalent
B15: NRCoV2-SR13 VHH-Fc (Fc fusion)
chain: EVQLVESGGGLVTTGGSLRLSCATSGSRFGSKHMAWYRQAPGKQRDLVAAISSGGSTHYGSSVKGRFTISRDNAKSTVYLQMNSLNPEDTAVFYCNMGGWDYRSNTYIPGSRSDYWGQGTQVTVSS
notes: bivalent
B16: NRCoV2-MRed06 VHH-Fc (Fc fusion)
chain: EVQLVESGGGLVQAGGSLRLSCAASGFTLAYYAIGWFRQAPGKEREGVSCISSSDGSAHYADSVKGRFTISRDNAKNTVSLQMNSLKPEDTAVYYCATDSFSSCSDYESGMDFWGKGTQVTVSS
notes: bivalent
B17: NRCoV2-MRed07 VHH-Fc (Fc fusion)
chain: EVQLVESGGGLVQPGGSLTLSCAASGSIGPFNTMGWYRQAPGNQREPAAIITRGGVTNYADSVKGRFTISRDNAKNAVYLQMDSLKPDDTAVYYCYANYGWAIPYWGNGTQVTVSS
notes: bivalent
B18: NRCoV2-SR01 VHH-Fc (Fc fusion)
chain: EVQLVQSGGGSVQAGGSLRLSCVASGFTFDNYAIGWFRQAPGKEREGVSCISGNGGVTIYADSVKGRFTISRDNAKNLVYLQMNSLKPEDTAVYYCAATGIRSTWSVYGCSRLAGPYDYWGQGTQVTVSS
notes: bivalent
B19: NRCoV2-SR02 VHH-Fc (Fc fusion)
chain: EVQLVDSGGGLVQAGGSLRLSCTASEFTLNYYSIGWFRQSPGKEREGVSCIRYSGGGIDYADSVKGRFTISRDNAKNTVYLTMNSLKPEDTAVYYCAADRLYSRACPTAGGRNYWGQGTQVTVSS
notes: bivalent
B20: NRCoV2-SR04 VHH-Fc (Fc fusion)
chain: QVQLVESGGGLVQAGGSLRLSCAASGRTFSSHTVGWYRQAPGKQRDLVAAISMGGNTNYADYADSVKGRFTISRDNAKNTLYLQMNSLKPEDTAVYYCNTAALVGNRLLPMATITWGQGTQVTVSS
notes: bivalent
B21: NRCoV2-MRed03 VHH-Fc (Fc fusion)
chain: EVQLVESGGGLVQPGGSLRLSCAAIGFTLDYYAIGWFRQAPGKEREGVSCISSSDGSTYYADSVKGRFTISRDNAKNTVYLQMNSLKPEDTAVYYCATDAFATCDSWYAQIAQYDFRGQGTQVTVSS
notes: bivalent
B22: NRCoV2-SR03 VHH-Fc (Fc fusion)
chain: AVQLVDSGGGLVQAGGSLRLSCAASGSIFSNNHMGWYRQAPGKQRELVAAISSGGKTNYADFAKGRFTISRDNAKNMVYLQMNSLKPEDTAVYYCNRGGWEYRSSYYIMGPHWGQGTQVTVSS
notes: bivalent

These binders were tested against T1, SARS-CoV spike (S) (SARS-CoV, UniProt P59594 14-1195) (assay: ELISA).

Row | Binder | binding result
1 | B1 | no binding (tested: 13 nM)

Each binder was assayed against T2, SARS-CoV-2 S1 (aa16-685) (Wuhan) (SARS-CoV-2 Wuhan, UniProt P0DTC2 16-685) (assay: ELISA).
T2 construct: NRC; FLAG, 6xHis tags

Row | Binder | binding result
2 | B2 | no binding (tested: 13 nM)
3 | B3 | no binding (tested: 13 nM)
4 | B4 | no binding (tested: 13 nM)
5 | B5 | no binding (tested: 13 nM)
6 | B6 | no binding (tested: 13 nM)
7 | B7 | no binding (tested: 13 nM)
8 | B8 | no binding (tested: 13 nM)
9 | B9 | no binding (tested: 13 nM)

Each binder was assayed against T3, SARS-CoV-2 S2 (aa686-1208) (Wuhan) (SARS-CoV-2 Wuhan, UniProt P0DTC2 686-1208) (assay: ELISA).
T3 construct: NRC; FLAG, 6xHis tags

Row | Binder | binding result
10 | B10 | no binding (tested: 13 nM)
11 | B11 | no binding (tested: 13 nM)
12 | B12 | no binding (tested: 13 nM)
13 | B13 | no binding (tested: 13 nM)

The binders below were run against T4, SARS-CoV-2 S1-NTD (aa16-305) (SARS-CoV-2 Wuhan, UniProt P0DTC2 16-305) (assay: ELISA).

Row | Binder | binding result
14 | B2 | no binding (tested: 13 nM)
15 | B3 | no binding (tested: 13 nM)
16 | B10 | no binding (tested: 13 nM)
17 | B4 | no binding (tested: 13 nM)
18 | B11 | no binding (tested: 13 nM)
19 | B5 | no binding (tested: 13 nM)
20 | B12 | no binding (tested: 13 nM)
21 | B13 | no binding (tested: 13 nM)
22 | B6 | no binding (tested: 13 nM)
23 | B7 | no binding (tested: 13 nM)
24 | B8 | no binding (tested: 13 nM)
25 | B9 | no binding (tested: 13 nM)

Target: T1, SARS-CoV spike (S)
Assay: ELISA
Remark: another data set of the same source

Row | Binder | binding result
26 | B3 | no binding (tested: 13 nM)
27 | B10 | no binding (tested: 13 nM)
28 | B11 | no binding (tested: 13 nM)
29 | B12 | no binding (tested: 13 nM)
30 | B13 | no binding (tested: 13 nM)

These binders were tested against T5, SARS-CoV-2 S on CHO-S cells (SARS-CoV-2, UniProt P0DTC2 14-1273) (assay: flow cytometry, CHO-S cells).
T5 construct: whole, on cells

Row | Binder | Bmax | EC50 [nM]
31 | B2 | 6950 | 2.7
32 | B3 | 5320 | 0.2
33 | B10 | 28000 | 1.3
34 | B4 | 7530 | 0.3
35 | B11 | 16200 | 78.9
36 | B5 | 6860 | 0.1
37 | B12 | 18800 | 0.9
38 | B13 | 13600 | 8.1
39 | B6 | 6900 | 0.3
40 | B7 | 5480 | 1.3
41 | B8 | 10200 | 0.9
42 | B9 | 6660 | 6.5

These binders were tested against T6, SARS-CoV-2 spike trimer S (Wuhan, SmT1) (SARS-CoV-2 Wuhan) (assay: ELISA, coated antigen, apparent EC50).
T6 construct: extracellular domain

Row | Binder | EC50 [nM]
43 | B14 | 0.59
44 | B15 | 0.43
45 | B16 | 0.4
46 | B17 | 1.2
47 | B18 | 0.13
48 | B19 | 0.11
49 | B20 | 0.2
50 | B21 | 0.2
51 | B22 | 0.16

The binders below were run against T2, SARS-CoV-2 S1 (aa16-685) (Wuhan) (assay: ELISA, coated antigen, apparent EC50).

Row | Binder | EC50 [nM]
52 | B14 | 2.7
53 | B15 | 0.43
54 | B16 | 0.59
55 | B17 | 1.5
56 | B18 | 0.23
57 | B19 | 0.13
58 | B20 | 0.25
59 | B21 | 0.48
60 | B22 | 0.2

Each binder was assayed against T4, SARS-CoV-2 S1-NTD (aa16-305) (assay: ELISA, coated antigen, apparent EC50).

Row | Binder | EC50 [nM]
61 | B14 | 0.36
62 | B15 | 0.23
63 | B16 | 0.4
64 | B17 | 0.8
65 | B18 | 0.19
66 | B19 | 0.34
67 | B20 | 0.17
68 | B21 | 0.7
69 | B22 | 0.17
